Target: HIV-1 Matrix (MA) WT (HIV-1, UniProt C1JB69 1-131)
Assay: ITC

B1: tRNALys3 A7U/U66A (structured_RNA)
RNA: GCCCGGUUAGCUCAGUCGGUAGAGCAUCAGACUUUUAAUCUGAGGGUCCAGGGUUCAAGUCCCUGAUCGGGCGCCA
  binding signal: 2 fold Kd increase vs WT tRNA
